Measured values published in paper PMC4036362, “Normal Activation of Discoidin Domain Receptor 1 Mutants with Disulfide Cross-links, Insertions, or Deletions in the Extracellular Juxtamembrane Region” (The Journal of Biological Chemistry, 2014).

B1: DDR1 mutant [human] / itself (parent)
chain: DADMKGHFDPAKCRYALGMQDRTIPDSDISASSSWSDSTAARHSRLESSDGDGAWCPAGSVFPKEEEYLQVDLQRLHLVALVGTQGRHAGGLGKEFSRSYRLRYSRDGRRWMGWKDRWGQEVISGNEDPEGVVLKDLGPPMVARLVRFYPRADRVMSVCLRVELYGCLWRDGLLSYTAPVGQTMYLSEAVYLNDSTYDGHTVGGLQYGGLGQLADGVVGLDDFRKSQELRVWPGYDYVGWSNHSFSSGYVEMEFEFDRLRAFQAMQVHSNNMHTLGARLPGGVECRFRRGPAMAWEGEPMRHNLGGNLGDPRARAVSVPLGGRVARFLQCRFLFAGPWLLFSEISFISDVVNNSSPALGGTFPPAPWWPPGPPPTNFSSLELEPRGQQPVAKAEGSPTAILIGCLVAIILLLLLIIALMLWRLHWRRLLSKAERRVLEEELTVHLSVPGDTILINNRPGPREPPPYQEPRPRGNPPHSAPCVPNGSALLLSNPAYRLLLATYARPPRGPGPPTPAWAKPTNTQAYSGDYMEPEKPGAPLLPPPPQNSVPHYAEADIVTLQGVTGGNTYAVPALPPGAVGDGPPRVDFPRSRLRFKEKLGEGQFGEVHLCEVDSPQDLVSLDFPLNVRKGHPLLVAVKILRPDATKNARNDFLKEVKIMSRLKDPNIIRLLGVCVQDDPLCMITDYMENGDLNQFLSAHQLEDKAAEGAPGDGQAAQGPTISYPMLLHVAAQIASGMRYLATLNFVHRDLATRNCLVGENFTIKIADFGMSRNLYAGDYYRVQGRAVLPIRWMAWECILMGKFTTASDVWAFGVTLWEVLMLCRAQPFGQLTDEQVIENAGEFFRDQGRQVYLSRPPACPQGLYELMLRCWSRESEQRPPFSQLHRFLAEDALNTV

Variants of: B1
Experiment: disulfide cross-linking, nonreducing SDS-PAGE and Western blotting with anti-DDR1 antibodies
Conditions: transiently transfected HEK293 cells, lysed in 30 mM NEM, read off a plot
[1] = 10 μg/ml collagen I for 90 min at 37 °C

| Variant | screen value [1] | screen value (unstimulated) | screen value (10 μg/ml collagen I for 90 min at 37 °C, dimeric plus higher oligomeric forms) | screen value (unstimulated, dimeric plus higher oligomeric forms) |
| --- | --- | --- | --- | --- |
| chain 1 E394C | 72% | 75% | – | – |
| chain 1 G403C | 30% | 32% | – | – |
| chain 1 A399C | 59% | 61% | 59% | 61% |
| chain 1 I400C | 56% | 60% | – | – |
| chain 1 C404A | – | 4.5% | – | – |
| chain 1 A391C | 80% | 81% | – | – |
| chain 1 A393C | 81% | 84% | – | – |
| chain 1 G395C | – | 73% | – | – |
| chain 1 E394C C404A | 81% | 83% | – | – |
| chain 1 G403C C404A | 35% | 37% | – | – |

Further lines, results first:

| screen value [1] | screen value (unstimulated) | screen value (10 μg/ml collagen I for 90 min at 37 °C, dimeric plus higher oligomeric forms) | screen value (unstimulated, dimeric plus higher oligomeric forms) | Variant |
| --- | --- | --- | --- | --- |
| 82% | 83% | – | – | chain 1 V390C |
| 3.5% | 5% | – | – | chain 1 L405C |
| 85% | – | – | – | chain 1 V390C C404A |
| 4.5% | 3.5% | – | – | chain 1 L405C C404A |
| 76% | 81% | – | – | chain 1 K392C |
| 62% | 65% | – | – | chain 1 I402C |
| 81% | 82% | – | – | chain 1 P397C |
| 82% | 84% | – | – | chain 1 S396C |
| 61% | 60% | – | – | chain 1 L401C |
| 93% | 94% | – | – | chain 1 T398C |
